Experimental data from paper PMC4148960, “Sox2 acts as a transcriptional repressor in neural stem cells” (BMC Neuroscience, 2014).

Biological target: T1, GST-fused Grg1 (UniProt Q62440 1-770)
T1 construct: Grg1 (groucho-related gene 1); cloned into pGEX4T1; No purification before mixing with Sox2 is described; the fusion was collected on glutathione-sepharose after the incubation; also called GST-Grg1; source: E. coli BL21, induced with IPTG, bacteria lysed
Test: pull-down; data not shown: amounts of radiolabelled Sox2 pulled down by GST-Grg1 and GST-Grg5 compared
Conditions: partners not purified

T1 sequence (Q62440 whole entry, the tested form may be a part): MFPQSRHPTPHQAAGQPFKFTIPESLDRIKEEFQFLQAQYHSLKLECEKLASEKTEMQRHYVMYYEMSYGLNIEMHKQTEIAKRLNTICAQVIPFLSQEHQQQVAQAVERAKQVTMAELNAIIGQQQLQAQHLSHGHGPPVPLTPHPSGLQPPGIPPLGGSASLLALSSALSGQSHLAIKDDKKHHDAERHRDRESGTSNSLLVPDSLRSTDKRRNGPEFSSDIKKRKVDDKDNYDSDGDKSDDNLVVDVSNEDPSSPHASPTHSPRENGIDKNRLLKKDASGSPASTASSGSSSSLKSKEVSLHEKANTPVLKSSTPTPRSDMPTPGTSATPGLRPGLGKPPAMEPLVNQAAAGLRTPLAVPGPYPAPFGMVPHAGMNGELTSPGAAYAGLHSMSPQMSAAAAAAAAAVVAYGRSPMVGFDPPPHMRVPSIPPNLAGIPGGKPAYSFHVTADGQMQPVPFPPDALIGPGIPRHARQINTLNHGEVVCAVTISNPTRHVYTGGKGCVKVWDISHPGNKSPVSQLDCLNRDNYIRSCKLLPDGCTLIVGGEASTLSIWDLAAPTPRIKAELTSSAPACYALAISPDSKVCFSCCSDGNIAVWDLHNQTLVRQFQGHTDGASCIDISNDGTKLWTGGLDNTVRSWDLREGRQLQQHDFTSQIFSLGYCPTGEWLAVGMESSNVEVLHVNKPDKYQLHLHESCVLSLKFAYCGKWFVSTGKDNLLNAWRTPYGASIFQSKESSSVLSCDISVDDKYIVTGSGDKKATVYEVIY

fold more Sox2 pulled down than by Grg5: ~4 fold
B1: radiolabelled Sox2 (in vitro translated) (natural protein)
chain: not shown
modifications: S^35-labelled
notes: Sox2, wild type; also called S^35-labelled Sox2; WT Sox2; source: in vitro translated (TNT T7 kit, Promega)
